Target: the molecule itself
Assay: SEC-MALS

B1: recombinant human ADA2 (adenosine deaminase 2), aa29-511 (enzyme, UniProt Q9NZK5 29-511, looked up)
chain: SIDETRAHLLLKEKMMRLGGRLVLNTKEELANERLMTLKIAEMKEAMRTLIFPPSMHFFQAKHLIERSQVFNILRMMPKGAALHLHDIGIVTMDWLVRNVTYRPHCHICFTPRGIMQFRFAHPTPRPSEKCSKWILLEDYRKRVQNVTEFDDSLLRNFTLVTQHPEVIYTNQNVVWSKFETIFFTISGLIHYAPVFRDYVFRSMQEFYEDNVLYMEIRARLLPVYELSGEHHDEEWSVKTYQEVAQKFVETHPEFIGIKIIYSDHRSKDVAVIAESIRMAMGLRIKFPTVVAGFDLVGHEDTGHSLHDYKEALMIPAKDGVKLPYFFHAGETDWQGTSIDRNILDALMLNTTRIGHGFALSKHPAVRTYSWKKDIPIEVCPISNQVLKLVSDLRNHPVATLMATGHPMVISSDDPAMFGAKGLSYDFYEVFMGIGGMKADLRTLKQLAMNSIKYSTLLESEKNTFMEIWKKRWDKFIADVATK
- binding result: binds

Source: doi:10.1101/2020.06.21.162990 (bioRxiv, 2020)
